Measured values from paper PMC5814282, “Biophysical studies and NMR structure of YAP2 WW domain - LATS1 PPxY motif complexes reveal the basis of their interaction” (Oncotarget, 2018).

Columns and labels:
WW12 = test: Co-expression, affinity and gel filtration chromatography of WW12-PY12; assay type: binding, human; settings: WW12 and PY12 co-expressed in E. coli
Experimental: Cells were harvested by spinning at 4,000 g for 20 min and lysed by sonication in buffer containing 50 mM Tris-HCl pH 7.0, 200 mM NaCl, 5% glycerol, 2 mM DTT, 0.5% Triton X-100 and 1mM PMSF. […] The GST tag was cleaved overnight using PreScission Protease. In the case of WW12-PY12 complex, an additional Ni-NTA chromatography step was performed, as PY12 contained a His-tag. The eluted proteins were further purified using FPLC Superdex 75 gel filtration in buffer containing 20 mM Tris-HCl pH 7.0, 100 mM NaCl, 5% glycerol and 2 mM DTT. The purity and quality of the purified proteins were assessed using SDS polyacrylamide gel electrophoresis (SDS-PAGE) and dynamic light scattering (DLS).

[1] = target: WW12 (YAP2, both WW domains); test: ITC, WW12 versus PY12; assay type: binding, human; settings: 25°C, 2 mM DTT, 2 mM EDTA
Experimental: ITC experiments were performed using the MicroCal VP-ITC titration calorimeter (MicroCal-Malvern). […] The proteins and peptides used were prepared in the same buffer containing 20 mM Tris-HCl pH 7.0 and 100 mM NaCl. Protein concentrations varying from 20 to 70 μM were titrated against peptide concentrations ranging from 0.5 to 1.8 mM at 25°C. The peptide samples were also injected into buffer as a reference to estimate the heat of dilution. In the case of WW12 vs PY12, the buffer used was 20 mM Tris-HCl pH 7.0, 100 mM NaCl, 3% glycerol, 2 mM DTT and 2 mM EDTA. All samples were degassed and spun before the experiment. The binding isotherms were analyzed employing a model that considered a single ligand binding site implemented in Origin 7 (OriginLab).

B1: PY12: LATS1 region PY12 (containing both PPxY motifs; aa 361-567) (protein)
chain: NVVPAGTVNRQPPPPYPLTAANGQSPSALQTGGSAAPSSYTNGSIPQSMMVPNRNSHNMELYNISVPGLQTNWPQSSSAPAQSSPSSGHEIPTWQPNIPVRSNSFNNPLGNRASHSANSQPSATTVTAITPAPIQQPVKSMRVLKPELQTALAPTHPSWIPQPIQTVQPSPFPEGTASNVTVMPPVAEAPNYQGPPPPYPKHLLHQN
modifications: left off: His-tag, end not stated, kept
With B1 the complex formation (WW12) was “formed a tight complex”, the Kd ([1]; ITC VP-ITC, 20 mM Tris-HCl pH 7.0, 100 mM NaCl, 3% glycerol, single ligand binding site model) was 9.6 µM and the “-TΔS” value ([1]; ITC, pH 7.0, 3% glycerol) was 33.4 kcal/mol. For the same molecule, the ΔG ([1]; ITC, pH 7.0, 3% glycerol) was -6.8 kcal/mol and the ΔH ([1]; ITC, pH 7.0, 3% glycerol) was -40.2 kcal/mol.
